Data on four compounds can be found in article PMC6793942, “The Ps and Qs of alarmone synthesis in Staphylococcus aureus” (PLoS ONE, 2019).

One series concerns the target T1, EF-RelQ (Enterococcus faecalis, UniProt Q830U9).
T1 construct: gene EF_2671
The following applies: allosteric activator; ppGpp synthesis from 1 mM GDP + 1 mM ATP; 2 mM MgCl2; pH 9.0; 37°C. The text has this: AMP formation by anion exchange chromatography, fold change of rate on EF-RelQ

Another series concerns the target T2, Sm-RelQ (Streptococcus mutans, UniProt Q8DU97).
T2 construct: gene SMU_1046c
The settings on record: allosteric activator; pGpp synthesis from 1 mM GMP + 1 mM ATP; 2 mM MgCl2; pH 9.0; 37°C. The source says:
AMP formation by anion exchange chromatography, fold change of rate on Sm-RelQ

Another series has as its target T3, Sm-RelP (Streptococcus mutans, UniProt Q8DUK1).
T3 construct: gene SMU_926
The settings on record: inhibitor; pGpp synthesis from 1 mM GMP + 1 mM ATP; 2 mM MgCl2; pH 9.0; 37°C. The text has this: AMP formation by anion exchange chromatography, fold change of rate on Sm-RelP

For series [1], the system named is Nc1nc2c(ncn2[C@@H]2O[C@H](COP(=O)(O)OP(=O)(O)OP(=O)(O)O)[C@@H](OP(=O)(O)OP(=O)(O)O)[C@H]2O)c(=O)[nH]1. Put plainly: purified protein. The settings on record: hydrolysis (HD domain), 1 mM MnCl2, 10 mM MgCl2, pH 7.8, 25°C.
For series [2], the system named is Nc1nc2c(ncn2[C@@H]2O[C@H](COP(=O)(O)OP(=O)(O)O)[C@@H](O)[C@H]2O)c(=O)[nH]1. Put plainly: purified protein. The following applies: ppGpp synthesis (SYNTH domain), 8 mM ATP, 6 mM MgCl2, pH 7.8, 25°C.
The test system of series [3] is Nc1nc2c(ncn2[C@@H]2O[C@H](COP(=O)(O)OP(=O)(O)OP(=O)(O)O)[C@@H](O)[C@H]2O)c(=O)[nH]1. Put plainly: purified protein. The settings on record: pppGpp synthesis (SYNTH domain), 8 mM ATP, 6 mM MgCl2, pH 7.8, 25°C.
The test system of series [4] is Nc1nc2c(ncn2[C@@H]2O[C@H](COP(=O)(O)OP(=O)(O)O)[C@@H](OP(=O)(O)OP(=O)(O)O)[C@H]2O)c(=O)[nH]1. The experiment in a line: purified protein. The following applies: hydrolysis (HD domain), 1 mM MnCl2, 10 mM MgCl2, pH 7.8, 25°C.
In series [5] the test system is Nc1nc2c(ncn2[C@@H]2O[C@H](COP(=O)(O)O)[C@@H](OP(=O)(O)OP(=O)(O)O)[C@H]2O)c(=O)[nH]1. The experiment in a line: purified protein. The settings on record: hydrolysis (HD domain), 1 mM MnCl2, 10 mM MgCl2, pH 7.8, 25°C.
Series [6] has as its system Nc1nc2c(ncn2[C@@H]2O[C@H](COP(=O)(O)O)[C@@H](O)[C@H]2O)c(=O)[nH]1. Put plainly: product formation by anion exchange chromatography. The following applies: pGpp synthesis, 2.5 mM ATP, 5 mM MgCl2, pH 9.0, no added alarmone, 625 ± 165 in the source. It is filed as biochemical, Staphylococcus aureus. The text has this:
(§1) product formation by anion exchange chromatography on Sa-RelP

Series [7] has as its system Nc1nc2c(ncn2[C@@H]2O[C@H](COP(=O)(O)OP(=O)(O)O)[C@@H](O)[C@H]2O)c(=O)[nH]1. The experiment in a line: product formation by anion exchange chromatography. It is filed as biochemical, Staphylococcus aureus. The settings on record: ppGpp synthesis, 2.5 mM ATP, 5 mM MgCl2, pH 9.0, no added alarmone.
Excerpt: as §1

In series [8] the test system is Nc1nc2c(ncn2[C@@H]2O[C@H](COP(=O)(O)OP(=O)(O)OP(=O)(O)O)[C@@H](O)[C@H]2O)c(=O)[nH]1. The experiment in a line: product formation by anion exchange chromatography. It is filed as biochemical, Staphylococcus aureus. The following applies: pppGpp synthesis, 2.5 mM ATP, 5 mM MgCl2, pH 9.0, no added alarmone.
Excerpt: as §1

T2 sequence (Q8DU97 entry or part of it): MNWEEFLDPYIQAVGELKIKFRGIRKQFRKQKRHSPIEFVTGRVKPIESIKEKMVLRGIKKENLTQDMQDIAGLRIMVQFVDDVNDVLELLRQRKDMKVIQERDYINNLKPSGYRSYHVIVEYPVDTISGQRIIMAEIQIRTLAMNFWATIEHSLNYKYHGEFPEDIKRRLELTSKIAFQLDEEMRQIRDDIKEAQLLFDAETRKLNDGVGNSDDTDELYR
T1 sequence (Q830U9 entry or part of it): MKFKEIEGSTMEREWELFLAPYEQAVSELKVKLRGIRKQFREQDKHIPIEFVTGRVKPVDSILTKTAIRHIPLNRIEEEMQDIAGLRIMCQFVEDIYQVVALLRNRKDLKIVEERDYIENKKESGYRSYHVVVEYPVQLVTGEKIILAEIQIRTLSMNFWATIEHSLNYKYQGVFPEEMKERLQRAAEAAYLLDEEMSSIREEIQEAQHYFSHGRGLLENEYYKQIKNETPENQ
T3 sequence (Q8DUK1 entry or part of it): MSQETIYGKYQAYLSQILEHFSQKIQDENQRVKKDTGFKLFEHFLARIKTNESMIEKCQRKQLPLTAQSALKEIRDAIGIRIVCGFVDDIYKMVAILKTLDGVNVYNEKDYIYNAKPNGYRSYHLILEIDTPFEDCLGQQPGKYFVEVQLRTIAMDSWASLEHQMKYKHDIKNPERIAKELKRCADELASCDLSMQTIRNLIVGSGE

For `Nc1nc2c(ncn2[C@@H]2O[C@H](COP(=O)(O)OP(=O)(O)O)[C@@H](OP(=O)(O)OP(=O)(O)O)[C@H]2O)c(=O)[nH]1` [ppGpp, guanosine-3’,5’-bis(diphosphate)], the “+ 100 μM ppGpp / Fold-change” value at EF-RelQ came out at 7.8 ± 0.6 fold.
On to `Nc1nc2c(ncn2[C@@H]2O[C@H](COP(=O)(O)OP(=O)(O)OP(=O)(O)O)[C@@H](OP(=O)(O)OP(=O)(O)O)[C@H]2O)c(=O)[nH]1` [pppGpp, guanosine-5’-triphosphate 3’-diphosphate], for which the results for the “+ 100 μM pppGpp / Fold-change” value on Sm-RelQ and at Sm-RelP were 572 ± 149 fold and 0.3 ± 0.1 fold, respectively.
For “Sa-Rel (Staphylococcus aureus subsp. aureus MRSA252)”, the Km (in general, the concentration of substrate that gives half-maximal velocity) in series [1] was determined as 14.2 ± 1.3 µM; in series [2] it was 434.9 ± 61.2 µM; in series [3], 114.3 ± 15.7 µM; in [4], 21.7 ± 2.8 µM; in series [5], 16.9 ± 2.1 µM. The maximal velocity (Vmax) (usually the rate approached at saturating substrate) turned out to be 4.68 µM/min in [1]; 1.08 µM/min in series [2]; 3.84 µM/min in series [3]; 3.6 µM/min in [4]; 4.08 µM/min in series [5]. Moreover, the kcat (in general, the maximal rate divided by the concentration of active sites) amounted to 0.78 s⁻¹ in series [1]; 0.018 s⁻¹ in series [2]; 0.064 s⁻¹ in [3]; 0.6 s⁻¹ in series [4]; 0.68 s⁻¹ in series [5]. Further, the kcat/Km (usually the turnover number divided by the Michaelis constant) came to 55200 M⁻¹ s⁻¹ in series [1]; 41 M⁻¹ s⁻¹ in [2]; 560 M⁻¹ s⁻¹ in series [3]; 27500 M⁻¹ s⁻¹ in [4]; 40000 M⁻¹ s⁻¹ in [5].
With “Sa-RelP (Staphylococcus aureus subsp. aureus NCTC 8325)”, in series [6], the Km came to 625 ± 169 µM, the Vmax was found to be 3.6 µM/min, the turnover number (kcat) came to 0.06 ± 0.01 s⁻¹ and the kcat/Km came out at 90 ± 20 M⁻¹ s⁻¹. Also, in series [7], the Km worked out at 177 ± 52 µM, the Vmax stood at 12 µM/min, the kcat is 0.78 ± 0.08 s⁻¹ and the kcat/Km is 4430 ± 900 M⁻¹ s⁻¹. In [8], the Michaelis-Menten constant (Km) is 80 ± 21 µM, the Vmax was determined as 6 µM/min, the catalytic constant (kcat) came to 0.38 ± 0.03 s⁻¹ and the kcat/Km was 4750 ± 1000 M⁻¹ s⁻¹.
